B1: Solute carrier family 2, facilitated glucose transporter member 8 (Mus musculus), Q9JIF3 (parent)
chain: MSPEDPQETQPLLRPPEARTPRGRRVFLASFAAALGPLSFGFALGYSSPAIPSLRRTAPPALRLGDNAASWFGAVVTLGAAAGGILGGWLLDRAGRKLSLLLCTVPFVTGFAVITAARDVWMLLGGRLLTGLACGVASLVAPVYISEIAYPAVRGLLGSCVQLMVVTGILLAYVAGWVLEWRWLAVLGCVPPTLMLLLMCYMPETPRFLLTQHQYQEAMAALRFLWGSEEGWEEPPVGAEHQGFQLALLRRPGIYKPLIIGISLMVFQQLSGVNAIMFYANSIFEEAKFKDSSLASVTVGIIQVLFTAVAALIMDRAGRRLLLALSGVIMVFSMSAFGTYFKLTQSLPSNSSHVGLVPIAAEPVDVQVGLAWLAVGSMCLFIAGFAVGWGPIPWLLMSEIFPLHVKGVATGICVLTNWFMAFLVTKEFSSVMEMLRPYGAFWLTAAFCALSVLFTLTVVPETKGRTLEQVTAHFEGR
partner: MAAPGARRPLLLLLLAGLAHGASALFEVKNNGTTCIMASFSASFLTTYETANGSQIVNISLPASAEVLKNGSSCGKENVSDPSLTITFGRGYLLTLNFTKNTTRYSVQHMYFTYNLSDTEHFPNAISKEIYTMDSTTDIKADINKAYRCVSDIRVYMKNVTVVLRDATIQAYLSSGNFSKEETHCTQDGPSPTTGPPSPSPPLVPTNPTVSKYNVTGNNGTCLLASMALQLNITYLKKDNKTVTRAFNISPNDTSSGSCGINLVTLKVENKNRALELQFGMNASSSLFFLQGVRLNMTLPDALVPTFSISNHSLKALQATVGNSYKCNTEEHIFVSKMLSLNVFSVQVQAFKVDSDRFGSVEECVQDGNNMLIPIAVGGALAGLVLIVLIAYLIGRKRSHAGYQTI
B2: Solute carrier family 2, facilitated glucose transporter member 8 (Mus musculus), Q9JIF3 (parent)
chain: B1 chain

In the first assay the parent is B1. To be noted: with lamp1_mouse Lamp1, P11438.
With L12A, the “effect of a mutation on the interaction” value is “disrupting interaction”.

In a further assay the parent is B2. To be noted: with ap2b1_mouse Ap2b1, Q9DBG3.
ap2b1_mouse Ap2b1, Q9DBG3, sequence (Q9DBG3 whole entry): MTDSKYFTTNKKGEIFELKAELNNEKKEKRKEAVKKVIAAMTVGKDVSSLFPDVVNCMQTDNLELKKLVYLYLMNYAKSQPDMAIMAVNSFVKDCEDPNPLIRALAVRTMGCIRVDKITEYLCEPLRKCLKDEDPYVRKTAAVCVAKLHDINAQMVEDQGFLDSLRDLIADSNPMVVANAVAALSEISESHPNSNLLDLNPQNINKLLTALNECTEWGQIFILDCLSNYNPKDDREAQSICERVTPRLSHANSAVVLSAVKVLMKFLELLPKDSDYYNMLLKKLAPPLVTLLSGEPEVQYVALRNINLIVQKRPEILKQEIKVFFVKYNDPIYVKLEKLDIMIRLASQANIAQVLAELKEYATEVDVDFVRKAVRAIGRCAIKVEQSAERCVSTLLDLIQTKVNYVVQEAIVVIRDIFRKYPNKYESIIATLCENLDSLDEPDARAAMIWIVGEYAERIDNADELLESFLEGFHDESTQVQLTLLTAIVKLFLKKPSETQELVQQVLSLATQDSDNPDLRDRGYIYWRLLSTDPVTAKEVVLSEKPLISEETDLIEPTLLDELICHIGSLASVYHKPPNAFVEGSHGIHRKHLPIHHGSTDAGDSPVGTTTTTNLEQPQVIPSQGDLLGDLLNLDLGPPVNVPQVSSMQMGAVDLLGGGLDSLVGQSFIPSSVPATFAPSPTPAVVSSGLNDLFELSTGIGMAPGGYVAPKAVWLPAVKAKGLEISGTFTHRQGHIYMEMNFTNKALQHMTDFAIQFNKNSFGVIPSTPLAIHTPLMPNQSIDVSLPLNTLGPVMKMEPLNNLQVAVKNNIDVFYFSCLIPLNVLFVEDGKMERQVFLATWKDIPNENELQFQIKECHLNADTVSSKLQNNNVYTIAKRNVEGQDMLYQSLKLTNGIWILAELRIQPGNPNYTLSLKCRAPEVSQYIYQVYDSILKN
Regarding L13A, the “effect of a mutation on the interaction” value is on record as “increasing interaction”.

In the next assay the parent is B2. To be noted: with ap1g1_human AP1G1, O43747.
ap1g1_human AP1G1, O43747, sequence (O43747 whole entry): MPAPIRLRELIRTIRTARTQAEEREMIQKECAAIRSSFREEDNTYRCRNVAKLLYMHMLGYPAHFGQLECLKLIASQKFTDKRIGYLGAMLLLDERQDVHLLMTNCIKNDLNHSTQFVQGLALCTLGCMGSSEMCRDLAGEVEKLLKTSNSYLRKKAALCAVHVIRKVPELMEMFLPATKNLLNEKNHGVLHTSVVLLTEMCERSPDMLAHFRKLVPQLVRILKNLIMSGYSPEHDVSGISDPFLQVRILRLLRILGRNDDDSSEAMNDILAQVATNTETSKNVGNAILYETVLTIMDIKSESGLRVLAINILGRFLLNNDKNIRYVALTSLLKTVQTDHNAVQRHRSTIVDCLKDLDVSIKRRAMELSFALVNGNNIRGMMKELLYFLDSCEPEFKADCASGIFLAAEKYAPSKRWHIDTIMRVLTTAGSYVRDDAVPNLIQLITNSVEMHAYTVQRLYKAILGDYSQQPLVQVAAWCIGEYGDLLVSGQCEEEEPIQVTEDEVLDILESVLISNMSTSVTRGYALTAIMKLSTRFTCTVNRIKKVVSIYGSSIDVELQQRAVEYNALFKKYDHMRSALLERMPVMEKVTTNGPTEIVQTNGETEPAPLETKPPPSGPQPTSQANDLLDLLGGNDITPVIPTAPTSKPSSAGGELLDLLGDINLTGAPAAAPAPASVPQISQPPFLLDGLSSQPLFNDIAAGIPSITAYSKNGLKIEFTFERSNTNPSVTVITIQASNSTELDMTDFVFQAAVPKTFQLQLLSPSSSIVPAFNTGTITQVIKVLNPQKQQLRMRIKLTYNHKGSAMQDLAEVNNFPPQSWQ
For L12A, the “effect of a mutation on the interaction” value is “disrupting interaction”.

In a further assay the parent is B2. To be noted: with ap1g1_mouse Ap1g1, P22892.
ap1g1_mouse Ap1g1, P22892, sequence (P22892 whole entry): as the sequence (O43747 whole entry) above, with T596S, S650A, N664T, A674T, A702P, I769V counted along it
Consider L12A, for which the “effect of a mutation on the interaction” value is recorded as “disrupting interaction”.

Variants of B2 are the subject of the next assay. Particulars: with ap2b1_rat Ap2b1, P62944.
ap2b1_rat Ap2b1, P62944, sequence (P62944 whole entry): as the sequence (Q9DBG3 whole entry) above, with T612A counted along it
As for L12A, the “effect of a mutation on the interaction” value is reported as “decreasing interaction”.

The record behind these values is IntAct's records for PubMed 19523115.
